Laboratory results published in patent publication US20030157090A1 (published 2003).

B1: scFv(CMV-4G) (scFv)
scFv: QVQLQESGGDLVQPGGSLKLSCAASGFTFSSYGMSWVRQTPDKRLELVATINSNGGSTFYPDSVKGRFTISRDNAKNTLYLQMSSLKSEDTAMYYCARNNWSFDYWGQGTTVTVSSGGGGSGGGGSGGGGSDIELTQSPASLAVSLGQRATISCRASESVHNYMHWYQQKPGQPPKLLIYRALNLESGIPARFSGSGSRTDFTLTINPVEADDVATYYCQQGQRKPWTFGGGTKLEIKR
B2: scFv(LYS-11E) (scFv)
scFv: QVQLQESGGDLVQPGGSLKLSCAASGFTFSSYGMSWVRQTPDKRLELVATINSNGGSTFYPDSVKGRFTISRDNAKNTLYLQMSSLKSEDTAMYYCARTRPYFDYWGQGTTVTVSSGGGGSGGGGSGGGGSDIELTQSPASLAVSLGQRATISCRASESVHNYMHWYQQKPGQPPKLLIYRALNLESGIPARFSGSGSRTDFTLTINPVEADDVATYYCQQVTYKPWTFGGGTKLEIKR
notes: also called scFv(HEL-11E)
B3: scFv(CMV-4B) (scFv)
scFv: QVQLQESGGDLVQPGGSLKLSCAASGFTFSSYGMSWVRQTPDKRLELVATINSNGGSTFYPDSVKGRFTISRDNAKNTLYLQMSSLKSEDTAMYYCARNNYSFDYWGQGTTVTVSSGGGGSGGGGSGGGGSDIELTQSPASLAVSLGQRATISCRASESVHNYMHWYQQKPGQPPKLLIYRALNLESGIPARFSGSGSRTDFTLTINPVEADDVATYYCQQGRRAPWTFGGGTKLEIKR
B4: scFv(P5) (scFv)
scFv: QVQLQESGGDLVQPGGSLKLSCAVSGFSLTGYGVNWVRQTPDKRLEWVAMIWGDGNTDYNSSVKGRFTISKDNAKSTVYLQMSSLKSEDTAMYYCARERDYRLDYWGQGTTVTVSSGGGGSGGGGSGGGGSDIELTQSPASLAVSLGQRATISCRASGNIHNYLAWYQQKPGQPPKLLIYYTTTLADGIPARFSGSGSGTDYTLTINPVEADDVATYYCQHFWSTPRTFGGGTKLEIKR
notes: Last product of mutagenesis, with the highest number of substitutions; also called P5 mutant; LYS/P5

Key:
[1] = target: cucumber mosaic virus (CMV), purified (cucumber mosaic virus); experiment: SPR (BIAcoreX), purified CMV amine-coupled to a CM5 chip, scFv in flow; kD=koff/kon
[2] = target: T1, lysozyme (Sigma) (chicken, UniProt P00698 19-147); experiment: column 'Specificity' of Table I; clone selected from the monoscaffold phage library and screened by ELISA
T1 construct: also called lysozime; Lisozyme
T1 sequence (P00698 19-147): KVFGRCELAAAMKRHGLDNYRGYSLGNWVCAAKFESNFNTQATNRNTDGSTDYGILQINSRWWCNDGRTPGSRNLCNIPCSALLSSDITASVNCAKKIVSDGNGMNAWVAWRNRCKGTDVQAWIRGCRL

[3] = target: T1, lysozyme (Sigma); experiment: ELISA on coated lysozyme, E. coli periplasmic extracts normalized for total protein

Binder | Kd [1] [nM] | also measured
B1 | 60 | 
B2 |  | binding result [2]: binds
B3 | 10 | 
B4 |  | binding result [3]: binds
